According to patent publication WO2009080764A2 (dated 2009):
Values belong to the binder of their own block, whether it stands above or below them.

Columns and labels:
[1] = molecular target: T1, human serum albumin (HSA) (human, UniProt P02768 25-609); experiment: SPR Biacore T100, periplasmic extract over immobilized human serum albumin, pH 7 and pH 5
T1 construct: also called monomeric HSA

[2] = molecular target: T2, human beta2-microglobulin (human, UniProt P61769 21-119); experiment: ELISA on coated b2-microglobulin from human urine, pH 5.1
T2 construct: also called b2-microglobulin; soluble human b2-microglobulin

[3] = molecular target: T3, shFcRn-GST (GST-fused soluble human FcRn, heterodimeric) (human, UniProt P55899 24-290; P61769 21-119); experiment: SPR Biacore 3000, Nb 500-15 nM over immobilized shFcRn-GST, pH 6.0, 1:1 Langmuir model
T3 construct: Eukaryotically expressed; immobilized by amine coupling on CM5 chips or used in ELISA; also called GST-fused shFcRn; not shown: GST fusion partner

[4] = molecular target: T3, shFcRn-GST (GST-fused soluble human …); experiment: SPR Biacore 3000, Nb 500-15 nM over immobilized shFcRn-GST, pH 7.4, 1:1 Langmuir model
[5] = molecular target: T3, shFcRn-GST (GST-fused soluble human …); experiment: SPR Biacore 3000, immobilized shFcRn-GST, pH 6.0, equilibrium responses in a steady-state affinity model
[6] = molecular target: T3, shFcRn-GST (GST-fused soluble human …); experiment: SPR Biacore 3000, immobilized shFcRn-GST, pH 7.4, equilibrium responses in a steady-state affinity model
[7] = molecular target: shFcRn (intact soluble human FcRn, heavy chain and beta2-microglobulin) (human) (UniProt P55899); experiment: ELISA pH 5.1, purified nanobody 0-50 nM on coated shFcRn, anti-myc detection

fold difference in off rate, pH 5 against pH 7 [1]: 0.54 fold
B1: 4A9 (VHH)
VHH: EVQLVESGGGLVQAGGSLRLSCEASGFTLDYSGVGWFRQAPGKERELVSCISRGGDRAGYANSVKGRFTMSRDNAKNILYLQMNSLKPEDTAVYYCAATHSGSGCYDGAIDYWGKGTLVTVSS

binding result [2]: no binding (tested: 0-50 nM) | Kd [3]: ~21.2 nM | Kd [4]: ~52.5 nM | Kd [5]: 22 nM | Kd [6]: 55.6 nM
B2: Nb 218-H4 (VHH)
VHH: EVQLVESGGALVQAGGSLRLSCVASGRTFNSIGMGWFRQAPGKERDFIGGITWDGRDTYYTDSVKGRFTISRDNAKNTVYLQMNSLKPWDTAVYYCAANRDPWIATSYQDYAYWGQGTQVTVSS
notes: Anti-FcRn Nanobody, family V; detected through a myc tag; also called monovalent nanobody

binding result [2]: no binding (tested: 0-50 nM) | fold improvement in binding against the monovalent nanobody [7]: 10 fold
B3: 218-H4_20GS_218-H4 (bivalent Nb 218-H4) (VHH)
chain: EVQLVESGGALVQAGGSLRLSCVASGRTFNSIGMGWFRQAPGKERDFIGGITWDGRDTYYTDSVKGRFTISRDNAKNTVYLQMNSLKPWDTAVYYCAANRDPWIATSYQDYAYWGQGTQVTVSSGGGGSGGGGSGGGGSGGGGSEVQLVESGGALVQAGGSLRLSCVASGRTFNSIGMGWFRQAPGKERDFIGGITWDGRDTYYTDSVKGRFTISRDNAKNTVYLQMNSLKPWDTAVYYCAANRDPWIATSYQDYAYWGQGTQVTVSS
